In patent publication US20180291096A1 (Janssen / Centocor, published 2018):

T1: murine IL-23 (murine, UniProt Q9EQ14 22-196; P43432 23-335)
T1 sequence (looked up) 1: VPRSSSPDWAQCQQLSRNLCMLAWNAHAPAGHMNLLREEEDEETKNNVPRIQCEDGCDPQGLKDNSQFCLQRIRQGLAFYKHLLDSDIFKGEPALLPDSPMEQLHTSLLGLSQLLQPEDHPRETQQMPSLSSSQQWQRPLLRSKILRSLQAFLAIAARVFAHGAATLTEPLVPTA
T1 sequence (looked up) 2: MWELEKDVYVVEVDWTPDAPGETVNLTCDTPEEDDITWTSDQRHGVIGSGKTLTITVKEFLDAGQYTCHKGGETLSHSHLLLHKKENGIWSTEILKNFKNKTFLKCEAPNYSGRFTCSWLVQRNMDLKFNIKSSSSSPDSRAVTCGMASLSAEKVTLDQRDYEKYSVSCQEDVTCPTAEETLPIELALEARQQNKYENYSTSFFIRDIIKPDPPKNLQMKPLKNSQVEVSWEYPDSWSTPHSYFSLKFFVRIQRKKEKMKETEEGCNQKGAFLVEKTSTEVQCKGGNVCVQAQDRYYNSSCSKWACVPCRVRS

T2: mIL-12 (Disulfide-linked, glycosylated heterodimer; the letters do not carry this.)
T2 construct: also called murine IL-12; copies: 1 + 1
T2 alpha: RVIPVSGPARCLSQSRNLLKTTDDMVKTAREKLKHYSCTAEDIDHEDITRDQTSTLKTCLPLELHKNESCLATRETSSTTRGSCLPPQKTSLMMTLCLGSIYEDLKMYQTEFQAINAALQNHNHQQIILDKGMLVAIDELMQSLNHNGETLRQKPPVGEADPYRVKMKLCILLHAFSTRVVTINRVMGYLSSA
T2 beta: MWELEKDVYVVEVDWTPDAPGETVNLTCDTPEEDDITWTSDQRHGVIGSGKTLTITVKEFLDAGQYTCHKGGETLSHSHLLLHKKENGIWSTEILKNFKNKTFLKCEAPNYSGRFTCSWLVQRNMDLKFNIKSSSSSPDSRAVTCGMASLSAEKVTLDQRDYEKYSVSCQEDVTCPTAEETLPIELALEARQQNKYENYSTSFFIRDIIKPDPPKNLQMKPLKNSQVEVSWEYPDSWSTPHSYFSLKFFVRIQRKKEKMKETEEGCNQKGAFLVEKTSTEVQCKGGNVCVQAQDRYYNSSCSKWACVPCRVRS

T3: p40 subunit of hrIL-12 (hrp40 monomer) (human, UniProt P29460 23-328)
T3 construct: also called p40 R&D
T3 sequence (looked up): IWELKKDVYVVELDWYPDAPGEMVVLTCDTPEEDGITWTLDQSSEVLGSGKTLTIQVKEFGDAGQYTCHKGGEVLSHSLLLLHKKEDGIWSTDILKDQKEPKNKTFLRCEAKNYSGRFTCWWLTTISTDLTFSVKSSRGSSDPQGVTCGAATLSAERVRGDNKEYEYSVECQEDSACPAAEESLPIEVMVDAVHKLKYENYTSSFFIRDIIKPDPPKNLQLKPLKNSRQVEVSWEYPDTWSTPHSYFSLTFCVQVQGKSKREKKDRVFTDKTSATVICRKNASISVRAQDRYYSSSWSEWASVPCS

T4: recombinant human IL-12 (hrIL-12), produced at Centocor (human, UniProt P29459 23-219; P29460 23-328)
T4 construct: also called IL-12 CNTO
T4 sequence (looked up) 1: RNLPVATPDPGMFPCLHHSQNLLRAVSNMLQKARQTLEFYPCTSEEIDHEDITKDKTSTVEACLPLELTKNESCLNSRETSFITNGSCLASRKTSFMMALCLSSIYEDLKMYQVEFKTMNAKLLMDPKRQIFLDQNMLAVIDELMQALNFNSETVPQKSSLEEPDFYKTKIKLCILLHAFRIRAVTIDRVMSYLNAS
T4 sequence (looked up) 2: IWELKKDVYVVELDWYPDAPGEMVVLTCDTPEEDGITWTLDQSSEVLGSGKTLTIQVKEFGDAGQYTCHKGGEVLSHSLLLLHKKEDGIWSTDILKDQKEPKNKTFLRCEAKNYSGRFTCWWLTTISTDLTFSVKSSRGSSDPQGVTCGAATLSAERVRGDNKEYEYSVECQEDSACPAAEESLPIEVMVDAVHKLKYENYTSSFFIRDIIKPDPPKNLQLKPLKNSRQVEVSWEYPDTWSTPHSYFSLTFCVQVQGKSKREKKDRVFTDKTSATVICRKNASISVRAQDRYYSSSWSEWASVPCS

T5: murine p40 (murine, UniProt P43432 23-335)
T5 sequence (looked up): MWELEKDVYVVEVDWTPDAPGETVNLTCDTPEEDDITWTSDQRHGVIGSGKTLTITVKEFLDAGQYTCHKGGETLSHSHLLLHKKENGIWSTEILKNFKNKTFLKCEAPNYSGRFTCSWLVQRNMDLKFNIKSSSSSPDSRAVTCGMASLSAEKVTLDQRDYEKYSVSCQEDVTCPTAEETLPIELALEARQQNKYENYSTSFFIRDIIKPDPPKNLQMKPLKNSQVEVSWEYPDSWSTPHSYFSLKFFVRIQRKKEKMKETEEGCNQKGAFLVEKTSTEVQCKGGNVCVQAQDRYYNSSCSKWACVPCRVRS

B1: human IL-23R-Fc fusion protein (Fc fusion, UniProt Q5VWK5 24-355, looked up, not shown: a dimerising Fc or GST)
chain: GITNINCSGHIWVEPATIFKMGMNISIYCQAAIKNCQPRKLHFYKNGIKERFQITRINKTTARLWYKNFLEPHASMYCTAECPKHFQETLICGKDISSGYPPDIPDEVTCVIYEYSGNMTCTWNAGKLTYIDTKYVVHVKSLETEEEQQYLTSSYINISTDSLQGGKKYLVWVQAANALGMEESKQLQIHLDDIVIPSAAVISRAETINATVPKTIIYWDSQTTIEKVSCEMRYKATTNQTWNVKEFDTNFTYVQQSEFYLEPNIKYVFQVRCQETGKRYWQPWSSLFFHKTPETVPQVTSKAFQHDTWNSGLTVASISTGHLTSDNRGDIG
notes: extracellular domain; also called hIL-23R; soluble IL-23R
B2: MOR04083 mAb (antibody, human IgG1, V domains shown)
VH: QVELVQSGAEVKKPGSSVKVSCKASGGTFSNYAISWVRQAPGQGLEWMGGIIPMFGYANYAQKFQGRVTITADESTSTAYMELSSLRSEDTAVYYCARDIYAGMDVWGQGTLVTVSS
VL: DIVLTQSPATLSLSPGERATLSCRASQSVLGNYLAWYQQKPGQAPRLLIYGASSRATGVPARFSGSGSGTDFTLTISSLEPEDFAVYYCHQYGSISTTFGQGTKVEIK
notes: human IgG1/kappa; also called 4083 (κ)
B3: recombinant human IL-23 (hrIL-23), produced at Centocor (ligand)
chain 1: RAVPGGSSPAWTQCQQLSQKLCTLAWSAHPLVGHMDLREEGDEETTNDVPHIQCGDGCDPQGLRDNSQFCLQRIHQGLIFYEKLLGSDIFTGEPSLLPDSPVAQLHASLLGLSQLLQPEGHHWETQQIPSLSPSQPWQRLLLRFKILRSLQAFVAVAARVFAHGAATLSP
chain 2: IWELKKDVYVVELDWYPDAPGEMVVLTCDTPEEDGITWTLDQSSEVLGSGKTLTIQVKEFGDAGQYTCHKGGEVLSHSLLLLHKKEDGIWSTDILKDQKEPKNKTFLRCEAKNYSGRFTCWWLTTISTDLTFSVKSSRGSSDPQGVTCGAATLSAERVRGDNKEYEYSVECQEDSACPAAEESLPIEVMVDAVHKLKYENYTSSFFIRDIIKPDPPKNLQLKPLKNSRQVEVSWEYPDTWSTPHSYFSLTFCVQVQGKSKREKKDRVFTDKTSATVICRKNASISVRAQDRYYSSSWSEWASVPCS
notes: p19-p40 heterodimer; also called rhIL-23; huIL-23
B4: MOR05049 mAb (antibody, human IgG1, V domains shown)
VH: QVELVESGGGLVQPGGSLRLSCAASGFTFSSFGMSWVRQAPGKGLEWVSGIEHKYLSYTTHYAASVKGRFTISRDNSKNTLYLQMNSLRAEDTAVYYCARYWGTPYLMQFDNWGQGTLVTVSS
VL: DIALTQPASVSGSPGQSITISCTGTSSDVGGYNSVSWYQQHPGKAPKLMIYSVSSRPSGVSNRFSGSKSGNTASLTISGLQAEDEADYYCSSYDTNKPLVVFGGGTKLTVL
notes: human IgG1/lambda
B5: MOR04190 mAb (antibody, human IgG1, V domains shown)
VH: QVELVQSGAEVKKPGSSVKVSCKASGGTFSSNYISWVRQAPGQGLEWMGGIIPIFGHANYAQKFQGRVTITADESTSTAYMELSSLRSEDTAVYYCARSKKGMYGGWTYPLMMFDLWGQGTLVTVSS
VL: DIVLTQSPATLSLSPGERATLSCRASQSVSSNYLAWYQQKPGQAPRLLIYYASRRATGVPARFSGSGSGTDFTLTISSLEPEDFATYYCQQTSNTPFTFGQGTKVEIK
notes: human IgG1/kappa; also called 4190 (κ); MOR0190

Experiments:
[1] = molecular target: B3; assay: blocking ELISA (BRBA): biotinylated IL-23 with titrated soluble IL-23R-Fc, binding to plate-immobilized IL-23R-Fc
Protocol: (§1) In this experiment, a human IL-23R-Fc fusion protein was immobilized on a plate. This fusion protein consists of the extracellular domain of human IL-23 receptor fused to a human Fc segment. Biotinylated hrIL-23 was added to the plate either alone or after preincubation with individual IL-23p19 mAbs. Soluble IL-23R (IL-23R-Fc) was used as a positive control. IL-23 binding was detected with HRP-conjugated streptavidin. […] There was no inhibition by B21M, a mAb with unrelated specificity. […] IL-23 binding was inhibited by the p40 neutralizing mAb CNTO 1275 (same as mAb 12A), as expected. […] CNTO 1275 again served as a positive control.

[2] = molecular target: B3; assay: hrIL-23/hIL-23R competition assay, soluble receptor as reference
[3] = molecular target: B3; assay: biotinylated hrIL-23 on immobilized IL-23R-Fc
Protocol: as §1

murine IL-23 = molecular target: T1, murine IL-23; assay: cytokine capture ELISA: mAbs coated onto plates, cytokines at 100 ng/ml; murine p40 containing cytokine detected with C17.8-biotin
mIL-12 = molecular target: T2, mIL-12; assay: as above
[4] = molecular target: B3; assay: cell-based or functional assay
[5] = molecular target: T3, p40 subunit of hrIL-12 (hrp40 monomer); assay: cytokine capture ELISA: mAbs coated onto plates, cytokines at 100 ng/ml, binding detected with mAb12B-biotin
Protocol: (§2) Purified mouse anti-hIL-23 mAbs were evaluated in cytokine capture ELISA to determine their antigen subunit specificity. Briefly, IL-23 mAbs were coated onto plates and incubated with 100 ng/ml) hrIL-23, hrIL-12, and hrp40, respectively. Following incubation with biotinylated anti-p40 mAb, the binding was detected using HRP—conjugated streptavidin. An anti-p40 mAb and an anti-IL-12 mAb (20C2, Catalog No. 555065, BD Pharmingen, San Diego, Calif.) with known specificity were used as controls.

[6] = molecular target: T4, recombinant human IL-12 (hrIL-12), …; assay: as above
Protocol: as §2

murine p40 = molecular target: T5, murine p40; assay: cytokine capture ELISA: mAbs coated onto plates, cytokines at 100 ng/ml; murine p40 containing cytokine detected with C17.8-biotin; target printed as m(p40)2
[7] = molecular target: T6, IL-23R and IL-12Rβ1 naturally expressed on TALL-104 cells (human, UniProt Q5VWK5 24-629; P42701 24-662); assay: flow cytometry on TALL-104 cells
T6 construct: whole, on cells

[8] = molecular target: B3; assay: blocking ELISA: 20 ng/ml IL-23-bt. with titrated mAb, binding to plate-immobilized IL-23R-Fc is blocked

Row | Binder | fold weaker potency than soluble IL-23R-Fc [3] [fold] | binding result (murine IL-23) | binding result (mIL-12) | IC50, inhibition of IL-17 production [4] [µg/mL] | binding result [5] | binding result [6] | binding result (murine p40) | other results
1 | B1 |  |  |  |  |  |  |  | IC50 (read off the curve) [1]: ~0.05 µg/mL; IC50 [2]: 1.8 nM
2 | B2 | ~3 | no binding (tested: 100 ng/ml) | no binding (tested: 100 ng/ml) | 1.4 | no binding (tested: 100 ng/ml) | no binding (tested: 100 ng/ml) | no binding (tested: 100 ng/ml) | 
3 | B3 |  |  |  |  |  |  |  | binding result [7]: binds
4 | B4 |  |  |  | 0.0162 |  |  |  | IC50 (read off the curve) [8]: ~0.1 µg/mL
5 | B5 | ~3 | no binding (tested: 100 ng/ml) | no binding (tested: 100 ng/ml) | 0.218 | no binding (tested: 100 ng/ml) | no binding (tested: 100 ng/ml) | no binding (tested: 100 ng/ml) | 
